In patent publication US20200113969:

Legend:
[1] = biological target: peak 3 of the RP-HPLC fractionation of L. albus deflamin (UniProt F5B8W8)
[2] = test system: peak 4 of the RP-HPLC fractionation of L. albus deflamin
[3] = biological target: peak 2 of the RP-HPLC fractionation of L. albus deflamin (UniProt F5B8W8)
[4] = test system: deflamin isolated from Lupinus albus seeds
[5] = test system: peak 1 of the RP-HPLC fractionation of L. albus deflamin

MMP-9 (commercial enzyme, Sigma), sequence (chain, as listed by the source): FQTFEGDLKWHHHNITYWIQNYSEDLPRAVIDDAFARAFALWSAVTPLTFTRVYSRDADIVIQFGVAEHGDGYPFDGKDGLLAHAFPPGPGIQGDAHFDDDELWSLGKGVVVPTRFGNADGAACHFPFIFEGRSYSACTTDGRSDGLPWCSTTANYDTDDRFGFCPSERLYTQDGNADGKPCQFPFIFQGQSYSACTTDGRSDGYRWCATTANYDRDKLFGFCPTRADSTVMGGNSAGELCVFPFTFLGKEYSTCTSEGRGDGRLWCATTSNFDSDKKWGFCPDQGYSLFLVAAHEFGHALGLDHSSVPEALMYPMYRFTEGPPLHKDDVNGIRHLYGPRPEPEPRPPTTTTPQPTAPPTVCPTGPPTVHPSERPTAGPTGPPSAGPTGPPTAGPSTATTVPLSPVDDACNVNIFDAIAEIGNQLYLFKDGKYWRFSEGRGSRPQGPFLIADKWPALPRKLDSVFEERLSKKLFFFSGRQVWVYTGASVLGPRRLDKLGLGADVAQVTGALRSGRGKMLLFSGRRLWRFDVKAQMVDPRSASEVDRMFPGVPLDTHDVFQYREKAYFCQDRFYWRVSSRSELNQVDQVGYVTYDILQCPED
peak 3 of the RP-HPLC fractionation of L. albus deflamin, sequence (F5B8W8 whole entry, looked up): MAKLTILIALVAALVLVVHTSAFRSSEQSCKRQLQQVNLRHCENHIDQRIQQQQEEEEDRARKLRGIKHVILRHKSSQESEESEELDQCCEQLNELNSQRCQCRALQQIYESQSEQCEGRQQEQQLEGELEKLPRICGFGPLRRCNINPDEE
peak 2 of the RP-HPLC fractionation of L. albus deflamin, sequence (F5B8W8 whole entry, looked up): as above
deflamin isolated from Lupinus albus seeds, sequence (chain, as listed by the source, chain 1 of 2): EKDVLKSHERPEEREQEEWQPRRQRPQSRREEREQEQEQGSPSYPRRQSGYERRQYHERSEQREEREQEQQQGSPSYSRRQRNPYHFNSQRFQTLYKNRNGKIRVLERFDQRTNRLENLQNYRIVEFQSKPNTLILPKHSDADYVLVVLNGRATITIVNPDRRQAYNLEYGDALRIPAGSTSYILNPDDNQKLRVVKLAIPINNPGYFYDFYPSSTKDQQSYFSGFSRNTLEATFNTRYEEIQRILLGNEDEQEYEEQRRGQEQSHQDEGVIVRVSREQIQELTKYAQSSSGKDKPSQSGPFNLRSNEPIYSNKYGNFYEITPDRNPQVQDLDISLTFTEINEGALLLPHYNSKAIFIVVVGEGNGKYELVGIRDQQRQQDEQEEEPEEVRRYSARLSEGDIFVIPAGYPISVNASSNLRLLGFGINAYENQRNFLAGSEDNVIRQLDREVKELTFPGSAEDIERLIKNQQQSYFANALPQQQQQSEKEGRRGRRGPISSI
deflamin isolated from Lupinus albus seeds, sequence (chain, as listed by the source, chain 2 of 2): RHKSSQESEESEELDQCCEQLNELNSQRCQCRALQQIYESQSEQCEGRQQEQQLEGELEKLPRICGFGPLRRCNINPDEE

Substance: MMP-9 (commercial enzyme, Sigma)
- MMP-9 proteolytic activity, DQ fluorogenic assay, 25 µg/ml [1]: all the selected peaks presented some degree of MMP inhibition and also inhibited invasion, but peak 3 was the one with the highest observed activities
- MMP-9 proteolytic activity, DQ fluorogenic assay, 25 µg/ml [2]: all the selected peaks presented some degree of MMP inhibition
- MMP-9 proteolytic activity, DQ fluorogenic assay, 25 µg/ml [3]: all the selected peaks presented some degree of MMP inhibition
- MMP-9 proteolytic activity on DQ-gelatin, deflamin at 50 µg/mL [4]: the highest inhibition (P<0.05) detected for deflamin, which induced a reduction greater than 80% of MMP-9 activity
- MMP-9 proteolytic activity, DQ fluorogenic assay, 25 µg/ml [5]: all the selected peaks presented some degree of MMP inhibition
